Here are results for 8 molecules from publication PMC12136788.

One series addresses MSI2 full-length (UniProt Q96DH6 1-328). The series is described as follows: fluorescence polarization; FP: 5 nM RNA, 20 mM Hepes (pH not given), 5 mM DTT, 137.5 mM NaCl, 0.01% Triton X-100, 10 ng/ul BSA, 2 U/ml SUPERase-In; 15 min at 4 C, read at 25 C; positional. On the technique in general: In fluorescence polarisation assays a small probe gives low polarisation when free and higher when bound to something large.

Series [1] addresses T1, MSI1 full-length (mouse, UniProt Q61474 1-362). Described as above.
Series [2] has as its target T2, UNK (called full-length) (UniProt Q9C0B0 30-357).
T2 sequence: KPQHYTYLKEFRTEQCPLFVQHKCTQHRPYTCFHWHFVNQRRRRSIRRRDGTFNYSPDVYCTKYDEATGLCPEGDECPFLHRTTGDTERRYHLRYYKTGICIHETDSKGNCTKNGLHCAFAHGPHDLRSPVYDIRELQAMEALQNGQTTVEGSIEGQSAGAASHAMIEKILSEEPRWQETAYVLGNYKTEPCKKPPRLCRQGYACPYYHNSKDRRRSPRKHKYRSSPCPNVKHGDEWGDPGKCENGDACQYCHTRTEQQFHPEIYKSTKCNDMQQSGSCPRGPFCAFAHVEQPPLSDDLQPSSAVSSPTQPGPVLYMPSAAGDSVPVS
The series is described as follows: fluorescence polarization; 50 nM unlabeled N16 RNA; FP: 5 nM RNA, 20 mM Hepes (pH not given), 5 mM DTT, 137.5 mM NaCl, 0.01% Triton X-100, 10 ng/ul BSA, 2 U/ml SUPERase-In; 15 min at 4 C, read at 25 C; positional.

The target of series [3] is T2, UNK (called full-length). The series is described as above. The source holds these as a separate data set.
In another series the target is MSI1 swap (mouse, UniProt Q61474 1-19+109-191+104-108+20-103+192-362, internal_change). In words: fluorescence polarization; FP: 5 nM RNA, 20 mM Hepes (pH not given), 5 mM DTT, 137.5 mM NaCl, 0.01% Triton X-100, 10 ng/ul BSA, 2 U/ml SUPERase-In; 15 min at 4 C, read at 25 C; positional.
Series [4] addresses T2, UNK (called full-length). Described as above.
Series [5] concerns the target T1, MSI1 full-length. The series is described as above. This is another data set of the same source.

T1 sequence (Q61474 whole entry): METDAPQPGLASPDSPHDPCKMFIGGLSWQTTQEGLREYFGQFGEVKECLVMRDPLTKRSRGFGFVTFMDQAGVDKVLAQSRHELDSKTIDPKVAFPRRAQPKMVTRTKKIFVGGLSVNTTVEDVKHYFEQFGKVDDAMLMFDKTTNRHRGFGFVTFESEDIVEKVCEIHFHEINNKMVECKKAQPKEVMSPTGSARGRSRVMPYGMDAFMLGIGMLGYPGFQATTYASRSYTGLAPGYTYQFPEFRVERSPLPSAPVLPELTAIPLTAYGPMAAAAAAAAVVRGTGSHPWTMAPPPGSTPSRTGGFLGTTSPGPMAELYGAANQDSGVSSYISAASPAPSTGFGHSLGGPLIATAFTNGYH
MSI1 swap, sequence (Q61474 other isoform, or with tags, fused parts or gaps): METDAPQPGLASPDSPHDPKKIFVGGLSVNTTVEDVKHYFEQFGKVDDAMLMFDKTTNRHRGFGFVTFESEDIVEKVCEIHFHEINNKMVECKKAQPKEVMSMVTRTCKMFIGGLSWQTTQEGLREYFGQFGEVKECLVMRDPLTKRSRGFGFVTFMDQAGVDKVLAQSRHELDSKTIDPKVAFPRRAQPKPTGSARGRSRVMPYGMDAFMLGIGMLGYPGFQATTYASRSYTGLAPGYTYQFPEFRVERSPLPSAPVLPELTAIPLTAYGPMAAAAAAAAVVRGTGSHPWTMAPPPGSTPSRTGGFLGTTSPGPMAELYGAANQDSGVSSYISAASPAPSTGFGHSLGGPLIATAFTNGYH
MSI2 full-length, sequence (Q96DH6 whole entry): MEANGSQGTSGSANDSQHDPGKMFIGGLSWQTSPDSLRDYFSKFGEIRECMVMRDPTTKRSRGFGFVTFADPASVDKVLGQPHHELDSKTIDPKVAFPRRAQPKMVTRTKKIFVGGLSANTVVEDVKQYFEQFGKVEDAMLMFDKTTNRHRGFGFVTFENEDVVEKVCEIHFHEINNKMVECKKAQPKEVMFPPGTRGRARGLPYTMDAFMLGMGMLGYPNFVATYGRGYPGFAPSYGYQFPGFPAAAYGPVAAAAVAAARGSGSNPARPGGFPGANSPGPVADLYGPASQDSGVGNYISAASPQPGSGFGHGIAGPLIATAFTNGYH

The term Kd denotes the concentration at which binding is half-saturated. A lower Kd goes with tighter binding. As for UAGUUUAGUUUAGUU (ssRNA) [tri-UAG FP RNA], the Kd with MSI2 full-length came to 2 nM; with MSI1 full-length [1], 5 nM.

With AAAAAUUAGUUAAUA (ssRNA) [UAG-AUA FP RNA], the affinity in the series with UNK (called full-length) [2], expressed as Kd, was 90 nM. Consider CCCCCCAAUUAGAAAAAA (ssRNA) [CCC-UAG FP RNA], for which, in the series with UNK (called full-length) [3], the binding signal was ~2 fold tighter than mono-UAG. Consider AAAAAAAAUUAGAAAAAA (ssRNA) [mono-UAG FP RNA], for which the Kd was determined as 126 nM with MSI1 full-length [1] and 400 nM with UNK (called full-length) [2]. The binding signal with MSI1 swap is ~2 fold weaker than MSI1 on mono-UAG.

On to CCCCCCAAUUAGUUAAUA (ssRNA) [CCC-UAG-AUA FP RNA], for which the binding signal with UNK (called full-length) [3] is ~1 fold vs UAG-AUA (little impact of upstream C).

UUUUUUUUUUUUUUUU (ssRNA) [polyU FP RNA]: the binding result in the series with UNK (called full-length) [4] was “no binding”.

For CCCCCCCCCCCCCCCC (ssRNA) [polyC FP RNA], the binding result with UNK (called full-length) [4] is reported as “no binding”. As for UUAGUUAGUU (ssRNA) [dual-UAG FP RNA], the binding signal with MSI1 full-length [5] was ~10 fold tighter than mono-UAG; with MSI1 swap, ~1 fold vs MSI1 on dual-UAG (no observable Kd difference).
